One may read the koff as the first-order rate constant of dissociation. A word on the EC50: it is the concentration that produces a half-maximal response. A higher EC50 goes with a less potent agent.

The target of one assay is T1, human FOLR1/2 chimera 4 (human, UniProt P15328 25-234).
T1 construct: Region of amino acids 140-150 of hFOLR1 replaced by hFOLR2
Briefly: flow cytometry on transiently transfected HEK293T cells, mouse anti-His then anti-mouse-PE (B575-A). On the procedure: Chimera 1 SEQ ID No. 67) and 7 ^{∘}Ch7; SEQ ID No. 73) also contain an additional residue change at a separate location. […] HEK293T cells were transfected with hFOLR1, hFOLR2, one of the hFOLR1/2 chimeric constructs ^{∘}FIG. 2B) or single residue mutants ^{∘}FIG. 2C). Binding of VHHs 2HFO19, 2HFO42, 3MFR60, and a mouse anti-FOLR1 monoclonal antibody ^{∘}mAb) was detected using a mouse anti-His tag antibody for the VHHs followed by an anti-mouse-phycoerythrin antibody. All VHHs were tested at a concentration of 200 nM and untransfected cells were used as a negative control. The colors used for the VHHs represent the different CDR3 families; blue: family 1, green: family 3, grey: family 10.
To identify the exact region in which the VHHs bind to FRα, epitope mapping experiments were performed. Since the VHHs are able to bind human FRα, but not FRβ, we generated seven human FOLR1/2 chimeric constructs where regions of human FOLR1 were replaced by the corresponding human FOLR2 ^{∘}FRβ) regions ^{∘}FIG. 2A): chimera 1 SEQ ID No. 67), chimera 2 ^{∘}SEQ ID No. 68), chimera 3 ^{∘}SEQ ID No. 69), chimera 4 ^{∘}SEQ ID No. 70), chimera 5 ^{∘}SEQ ID No. 71), chimera 6 ^{∘}SEQ ID No. 72) and chimera 7 ^{∘}SEQ ID No. 73). Three additional chimera 1 constructs were made: chimera 1a ^{∘}replacing fragment 31-40; SEQ ID No. 74), chimera 1b ^{∘}replacing fragment 41-50; SEQ ID No. 75) and chimera 1c ^{∘}replacing fragment 51-64; SEQ ID NO. 76). The constructs were transiently transfected into HEK293T cells and dose-dependent binding of the VHHs to the wild-types FRα and FRβ ^{∘}WTs) or the chimeric constructs was assessed via flow cytometry via detection of the tag ^{∘}FIG. 2B). […] Different anti-FRα VHHs were able to bind to cell-expressed FRα-FRβ chimeras to a similar level as WT FRα, with the exception of chimera 4 ^{∘}SEQ ID No. 70) where the binding was completely abolished for all VHHs.
Background: A flow cytometer gives signals particle by particle.

The target in another assay is T2, human FRα Y150H (human, UniProt P15328 25-234).
T2 construct: The entry is the mutant itself
T2 sequence (P15328 25-234 Y150H limits assumed): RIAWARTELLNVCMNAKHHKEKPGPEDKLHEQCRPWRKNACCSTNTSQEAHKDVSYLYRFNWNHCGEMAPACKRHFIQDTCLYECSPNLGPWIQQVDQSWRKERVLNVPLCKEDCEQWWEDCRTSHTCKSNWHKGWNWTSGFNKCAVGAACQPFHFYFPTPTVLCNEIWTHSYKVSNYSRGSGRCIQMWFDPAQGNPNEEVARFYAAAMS
Briefly: flow cytometry, transfected HEK293T cells (data not shown). An outline of the steps:
(§1)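 HEK293T cells were transfected with single-residue mutants of human folate receptor alpha. Binding was measured by flow cytometry with each VHH at 200 nM. VHHs were detected with a mouse anti-His tag antibody followed by an anti-mouse phycoerythrin antibody. Untransfected cells served as negative control.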

The next assay addresses T3, human FRα R147H (human, UniProt P15328 25-234).
T3 construct: The entry is the mutant itself
The assay is described as above. An outline of the steps: as §1

Another assay concerns the target T4, human FRα E140Q (human, UniProt P15328 25-234).
T4 construct: The entry is the mutant itself
Described as above. An outline of the steps:
as §1

In assay [1] the target is T5, human folate receptor alpha (hFRα), recombinant protein (human, UniProt P15328 25-233).
T5 construct: Bought recombinant proteins (His-tagged, or biotinylated via Avi-tag, e.g. AcroBiosystems FO1-H82E2, F01-H52H1); also called hFOLR1; huFOLR1
T5 sequence (P15328 25-233 limits assumed): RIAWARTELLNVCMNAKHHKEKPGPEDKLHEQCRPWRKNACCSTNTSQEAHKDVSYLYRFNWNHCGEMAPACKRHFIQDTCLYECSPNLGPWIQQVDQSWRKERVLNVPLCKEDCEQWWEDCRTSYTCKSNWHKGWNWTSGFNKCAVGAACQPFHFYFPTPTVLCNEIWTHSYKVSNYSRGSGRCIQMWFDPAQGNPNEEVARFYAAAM
Briefly: BLI, periplasmic extract, FRα on AR2G biosensors. Background: In BLI a coated tip is dipped into the sample, and binding shifts an interference pattern.

The target in assay [2] is T6, mouse folate receptor alpha (mFRα), recombinant protein (mouse, UniProt P35846 25-232).
T6 construct: Bought recombinant proteins (e.g. biotinylated, Acro Biosystems FO1-M82E9); also called mFOLR1; Ms FOLR1
T6 sequence (P35846 25-232 limits assumed): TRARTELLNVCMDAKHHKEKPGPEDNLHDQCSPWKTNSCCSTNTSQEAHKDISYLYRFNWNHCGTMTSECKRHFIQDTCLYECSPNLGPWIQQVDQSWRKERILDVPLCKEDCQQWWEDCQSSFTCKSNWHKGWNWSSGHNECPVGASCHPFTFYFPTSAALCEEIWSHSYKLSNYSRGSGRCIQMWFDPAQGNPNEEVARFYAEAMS
As to the kind of experiment: BLI, periplasmic extract, FRα on AR2G biosensors.

Assay [3] deals with T5, human folate receptor alpha (hFRα), …. Briefly: ELISA, periplasmic extract. A general note: An ELISA detects its analyte on a solid surface through an enzyme-linked reagent.
Assay [4] deals with T6, mouse folate receptor alpha (mFRα), …. Briefly: ELISA, periplasmic extract.
Assay [5] concerns the target T7, human folate receptor alpha expressed on cells (transfected HEK293T, HeLa, MCF7, MDA-MB-231) (human, UniProt P15328 25-234).
T7 construct: HEK293T transiently transfected with human FOLR1; also called native human FRα; cell-expressed human FOLR1
Briefly: flow cytometry on HEK293T cells overexpressing human FOLR1, His tag detection, PE MFI, non-linear fit. The procedure:
Data were normalized and technical replicates were plotted as mean±SD. Data were fitted by non-linear regression and the half-maximal effective concentration ^{∘}EC50) was calculated using GraphPad Prism 9 software. ^{∘}FIG. 1C and FIG. 1D) Binding affinity determination of anti-FOLR1 VHHs for native FOLR1. Mouse ^{∘}FIG. 1C) or human FOLR1 FIG. 1D) was overexpressed on HEK293T cells and binding of the anti-FOLR1 VHHs was assessed using flow cytometry. The mean fluorescence intensity ^{∘}MFI) of the phycoerythrin signal was plotted for each VHH concentration. Data were fitted by non-linear regression using GraphPad Prism 9 software. ^{∘}FIG. 1E) Determination of the competition of representative family members with folic acid ^{∘}FA) using ELISA. Mouse FOLR1 was coated on the plate and was pre-incubated with or without 100 μM FA before adding the VHHs. Data were fitted by non-linear regression using GraphPad Prism 9 software.

T3 sequence (P15328 25-234 R147H limits assumed): as the sequence (P15328 25-234 Y150H limits assumed) above, with R123H, H126Y counted along it
T7 sequence (P15328 25-234 limits assumed): as the sequence (P15328 25-234 Y150H limits assumed) above, with H126Y counted along it
T1 sequence (P15328 other isoform, or with tags, fused parts or gaps mutant limits assumed): as the sequence (P15328 25-234 Y150H limits assumed) above, with E116Q, Q117R, R123H counted along it
T4 sequence (P15328 25-234 E140Q limits assumed): as the sequence (P15328 25-234 Y150H limits assumed) above, with E116Q, H126Y counted along it

B1: VHH 3MFR60 (family 10) (VHH)
VHH: QVQLQESGGGLVQAGGSLRVSCAASGIIFSMNGMGWFRQAPGKQRELVASITSGGSTKYADSVKGRFTISRDNAKNTVYLQMNSLKPEDTAVYYCNIQFGSRWSTYWGQGTQVTVSS
On to B1, for which the binding result was “no binding (tested: 200 nM)” in the assay with human FOLR1/2 chimera 4, “binds” with human FRα Y150H, “binds” with human FRα R147H and “binds” with human FRα E140Q. The koff was 0.0449 s⁻¹ in assay [1] and 0.00287 s⁻¹ in assay [2]. In addition, the “PE-ELISA (ratio to uncoated well)” value is 4.8 in [3] and 4.9 in assay [4]. The same molecule had an EC50 in [5] of 10.1 nM.

B2: VHH 2HFO19 (family 1) (VHH)
VHH: QVQLQESGGGLVQPGGSLRVSCAASGFPFSTVYMSWVRQAPGKGLEWVSGINNDGGVIDYADSVKGRFTISRDNAKNTLYLQLNSLKPEDTALYFCARGRSFVATLSSSLRGQGTQVTVSS
notes: also called Nb19
Consider B2, for which the binding result is recorded as “no binding (tested: 200 nM)” with human FOLR1/2 chimera 4, “binds” with human FRα Y150H, “binds” with human FRα R147H and “binds” with human FRα E140Q. For the same molecule, the koff in [1] stood at 0.013 s⁻¹; in assay [2], 0.00279 s⁻¹. For the same molecule, the “PE-ELISA (ratio to uncoated well)” value in assay [3] was found to be 13.8; in assay [4] it was 14.2. In addition, the EC50 in [5] was 4.5 nM.

B3: VHH 2HFO42 (family 3) (VHH)
VHH: QVQLQESGGGLVQAGGSLRLSCAASGSGFSGMIMGWYRQVPGKQRELVATVTSHGTTNYADSVKGRFTISRDNAKNTVLLQMNSLKPEDTAVYYCNAHFPGIYWGKGTQVTVSS
notes: also called 2HF042; Nb42
For B3, the binding result is reported as “no binding (tested: 200 nM)” with human FOLR1/2 chimera 4, “binds” with human FRα Y150H, “binds” with human FRα R147H and “binds” with human FRα E140Q. Besides, the values for the off-rate constant (koff) in assay [1] and in assay [2] were 0.0266 s⁻¹ and 0.00881 s⁻¹, respectively. The “PE-ELISA (ratio to uncoated well)” value is 11.7 in assay [3] and 12.2 in [4]. For the same molecule, a half-maximal effect in assay [5] (EC50) was put at 26.4 nM.

For the origin of these results see US20250304677A1 (VIB VZW, published 2025).
